# Experimental data published in US20180193452A1 (NEMOURS FOUNDATION, published 2018).
# Biological target: T1, purified human IgE (Abcam) (human, UniProt P01854-1 1-428)
# T1 construct: also called free IgE; secreted IgE
# Experiment: not told
# T1 sequence (P01854 other isoform, or with tags, fused parts or gaps): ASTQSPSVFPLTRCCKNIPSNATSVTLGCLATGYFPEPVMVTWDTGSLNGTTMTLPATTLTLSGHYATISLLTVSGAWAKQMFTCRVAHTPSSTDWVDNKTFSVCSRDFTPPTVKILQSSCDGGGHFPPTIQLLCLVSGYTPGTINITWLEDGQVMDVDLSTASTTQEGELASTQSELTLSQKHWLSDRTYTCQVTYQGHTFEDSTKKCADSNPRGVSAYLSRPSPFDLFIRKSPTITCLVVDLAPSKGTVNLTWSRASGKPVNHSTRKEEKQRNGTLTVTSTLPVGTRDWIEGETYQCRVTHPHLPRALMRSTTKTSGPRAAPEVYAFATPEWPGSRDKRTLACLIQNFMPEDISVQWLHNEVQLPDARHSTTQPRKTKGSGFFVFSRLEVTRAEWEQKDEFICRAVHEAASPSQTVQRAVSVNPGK
row,fold affinity reduction over wild type,Binder
1,27 fold,FcεRIα extracellular domain mutant K117D (receptor) VPQKPKVSLNPPWNRIFKGENVTLTCNGNNFFEVSSTKWFHNGSLSEETNSSLNIVNAKFEDSGEYKCQHQQVNESEPVYLEVFSDWLLLQASAEVVMEGQPLFLRCHGWRNWDVYDVIYYKDGEALKYWYENHNISITNATVEDSGTYYCTGKVWQLDYESEPLNITVIKAPREKYWLQ
2,10 fold,FcεRIα extracellular domain mutant V155A (receptor) VPQKPKVSLNPPWNRIFKGENVTLTCNGNNFFEVSSTKWFHNGSLSEETNSSLNIVNAKFEDSGEYKCQHQQVNESEPVYLEVFSDWLLLQASAEVVMEGQPLFLRCHGWRNWDVYKVIYYKDGEALKYWYENHNISITNATVEDSGTYYCTGKAWQLDYESEPLNITVIKAPREKYWLQ
3,5 fold,FcεRIα extracellular domain mutant W113A (receptor) VPQKPKVSLNPPWNRIFKGENVTLTCNGNNFFEVSSTKWFHNGSLSEETNSSLNIVNAKFEDSGEYKCQHQQVNESEPVYLEVFSDWLLLQASAEVVMEGQPLFLRCHGWRNADVYKVIYYKDGEALKYWYENHNISITNATVEDSGTYYCTGKVWQLDYESEPLNITVIKAPREKYWLQ
4,7 fold,FcεRIα extracellular domain mutant W87D (receptor) VPQKPKVSLNPPWNRIFKGENVTLTCNGNNFFEVSSTKWFHNGSLSEETNSSLNIVNAKFEDSGEYKCQHQQVNESEPVYLEVFSDDLLLQASAEVVMEGQPLFLRCHGWRNWDVYKVIYYKDGEALKYWYENHNISITNATVEDSGTYYCTGKVWQLDYESEPLNITVIKAPREKYWLQ
5,3 fold,FcεRIα extracellular domain mutant Y131A (receptor) VPQKPKVSLNPPWNRIFKGENVTLTCNGNNFFEVSSTKWFHNGSLSEETNSSLNIVNAKFEDSGEYKCQHQQVNESEPVYLEVFSDWLLLQASAEVVMEGQPLFLRCHGWRNWDVYKVIYYKDGEALKYWAENHNISITNATVEDSGTYYCTGKVWQLDYESEPLNITVIKAPREKYWLQ
6,2 fold,FcεRIα extracellular domain mutant D159A (receptor) VPQKPKVSLNPPWNRIFKGENVTLTCNGNNFFEVSSTKWFHNGSLSEETNSSLNIVNAKFEDSGEYKCQHQQVNESEPVYLEVFSDWLLLQASAEVVMEGQPLFLRCHGWRNWDVYKVIYYKDGEALKYWYENHNISITNATVEDSGTYYCTGKVWQLAYESEPLNITVIKAPREKYWLQ
